Series [1] addresses POLRMT Δ42;TFAM Δ42;TFB2M Δ41, Alexa488 (human;human;human, UniProt O00411;Q00059;Q9H5Q4 43-1230;43-246;42-396, ||). The series is described as follows: fluorescence polarization.
Series [2] has as its target POLRMT Δ42;TFAM Δ42;TFB2M Δ59 (human;human;human, UniProt O00411;Q00059;Q9H5Q4 43-1230;43-246;60-396, ||). The series can be described thus: SEC and DLS.
Series [3] deals with POLRMT Δ42;TFB2M Δ59 (human;human, UniProt O00411;Q9H5Q4 43-1230;60-396, |). The series can be described thus: cryo-EM structure 3.15 A.
Series [4] deals with Human mitochondrial RNA polymerase (POLRMT) Δ42 (human, UniProt O00411 43-1230). The series can be described thus: cryo-EM structure.
For series [5], the target named is T1, POLRMT-LSPDNA(−42to+9)-TFAM (P-D-T) complex (human, UniProt O00411 43-1230; Q00059 43-245). The series can be described thus: fluorescence polarisation. For orientation: In fluorescence polarisation assays a small probe gives low polarisation when free and higher when bound to something large.
The target in series [6] is T1, POLRMT-LSPDNA(−42to+9)-TFAM (P-D-T) …. The series can be described thus: fluorescence polarisation. This is another data set of the same source.

T1 sequence (O00411 43-1230, one chain of several): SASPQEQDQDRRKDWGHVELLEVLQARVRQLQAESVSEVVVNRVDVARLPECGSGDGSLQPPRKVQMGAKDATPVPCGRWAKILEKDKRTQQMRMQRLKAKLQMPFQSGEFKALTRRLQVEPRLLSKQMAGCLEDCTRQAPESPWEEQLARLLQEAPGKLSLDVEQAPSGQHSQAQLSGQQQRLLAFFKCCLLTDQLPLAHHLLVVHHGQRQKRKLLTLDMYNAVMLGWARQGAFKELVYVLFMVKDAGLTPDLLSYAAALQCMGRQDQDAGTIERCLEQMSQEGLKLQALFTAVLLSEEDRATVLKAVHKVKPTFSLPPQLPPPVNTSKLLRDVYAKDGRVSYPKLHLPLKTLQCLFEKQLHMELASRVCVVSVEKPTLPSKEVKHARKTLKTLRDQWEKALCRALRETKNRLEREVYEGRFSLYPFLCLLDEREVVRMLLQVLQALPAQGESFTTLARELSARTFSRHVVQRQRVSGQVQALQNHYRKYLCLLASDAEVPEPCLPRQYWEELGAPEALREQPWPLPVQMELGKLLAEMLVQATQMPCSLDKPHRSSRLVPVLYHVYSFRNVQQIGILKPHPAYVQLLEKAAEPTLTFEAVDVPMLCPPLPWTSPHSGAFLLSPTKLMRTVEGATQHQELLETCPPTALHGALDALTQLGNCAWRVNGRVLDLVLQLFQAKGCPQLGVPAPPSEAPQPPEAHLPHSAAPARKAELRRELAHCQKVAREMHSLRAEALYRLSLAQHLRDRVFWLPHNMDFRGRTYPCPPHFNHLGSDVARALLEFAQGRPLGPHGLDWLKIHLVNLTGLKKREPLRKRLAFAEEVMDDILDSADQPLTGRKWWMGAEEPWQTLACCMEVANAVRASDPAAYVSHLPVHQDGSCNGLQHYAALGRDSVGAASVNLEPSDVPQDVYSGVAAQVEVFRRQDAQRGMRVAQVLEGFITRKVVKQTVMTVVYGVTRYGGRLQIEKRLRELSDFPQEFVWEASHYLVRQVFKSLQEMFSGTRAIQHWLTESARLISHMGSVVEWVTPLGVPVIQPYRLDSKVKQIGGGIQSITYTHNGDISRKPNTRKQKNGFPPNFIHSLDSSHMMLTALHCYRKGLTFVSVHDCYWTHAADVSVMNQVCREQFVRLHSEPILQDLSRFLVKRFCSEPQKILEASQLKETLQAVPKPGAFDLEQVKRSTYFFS
Human mitochondrial RNA polymerase (POLRMT) Δ42, sequence (O00411 43-1230, stated change not applied): as the sequence (O00411 43-1230, one chain of several) above
POLRMT Δ42;TFB2M Δ59, sequence (O00411 43-1230, stated change not applied, one chain of several): as the sequence (O00411 43-1230, one chain of several) above
POLRMT Δ42;TFAM Δ42;TFB2M Δ41, Alexa488, sequence (O00411 43-1230, stated change not applied, one chain of several): as the sequence (O00411 43-1230, one chain of several) above
POLRMT Δ42;TFAM Δ42;TFB2M Δ59, sequence (O00411 43-1230, stated change not applied, one chain of several): as the sequence (O00411 43-1230, one chain of several) above

B1: LSP -42 to +9 duplex (dsDNA)
DNA 1: TGTGTTAGTTGGGGGGTGACTGTTAAAAGTGCATACCGCCAAAAGATAAAA
DNA 2: TTTTATCTTTTGGCGGTATGCACTTTTAACAGTCACCCCCCAACTAACACA
As usually defined, the Kd is the equilibrium constant for the complex coming apart. Higher therefore signals a looser complex. In turn, B1 yielded a Kd in series [1] of 6.1 nM.

B2: LSP -43 to +13, -4 to +1 bubble (56 bp) (dsDNA)
DNA 1: ATGTGTTAGTTGGGGGGTGACTGTTAAAAGTGCATACCGAACAAAGATAAAATTTG
DNA 2: CAAATTTTATCTCCAGGCGGTATGCACTTTTAACAGTCACCCCCCAACTAACACAT
For B2, in series [2], the binding result is “binds”.

B3: LSP bubble with pppGpGpA RNA (slipped IC3) (mixed)
DNA 1: ATGTGTTAGTTGGGGGGTGACTGTTAAAAGTGCATACCGAACAAAGATAAAATTTG
DNA 2: CAAATTTTATCTCCAGGCGGTATGCACTTTTAACAGTCACCCCCCAACTAACACAT
?: GGA
modifications: RNA 5' triphosphate
Regarding B3, the binding result in series [3] is on record as “binds”.

B4: Human transcription factor 2 (TFB2M) Δ59 (natural protein, UniProt Q9H5Q4 60-396, looked up)
chain: PPRKASKASLDFKRYVTDRRLAETLAQIYLGKPSRPPHLLLECNPGPGILTQALLEAGAKVVALESDKTFIPHLESLGKNLDGKLRVIHCDFFKLDPRSGGVIKPPAMSSRGLFKNLGIEAVPWTADIPLKVVGMFPSRGEKRALWKLAYDLYSCTSIYKFGRIEVNMFIGEKEFQKLMADPGNPDLYHVLSVIWQLACEIKVLHMEPWSSFDIYTRKGPLENPKRRELLDQLQQKLYLIQMIPRQNLFTKNLTPMNYNIFFHLLKHCFGRRSATVIDHLRSLTPLDARDILMQIGKQEDEKVVNMHPQDFKTLFETIERSKDCAYKWLYDETLEDR
As to B4, in series [4], the binding result is reported as “binds”.

B5: Human transcription factor 2 (TFB2M) SGG-AAA (natural protein, UniProt Q9H5Q4 60-396, looked up)
chain: PPRKASKASLDFKRYVTDRRLAETLAQIYLGKPSRPPHLLLECNPGPGILTQALLEAGAKVVALESDKTFIPHLESLGKNLDGKLRVIHCDFFKLDPRAAAVIKPPAMSSRGLFKNLGIEAVPWTADIPLKVVGMFPSRGEKRALWKLAYDLYSCTSIYKFGRIEVNMFIGEKEFQKLMADPGNPDLYHVLSVIWQLACEIKVLHMEPWSSFDIYTRKGPLENPKRRELLDQLQQKLYLIQMIPRQNLFTKNLTPMNYNIFFHLLKHCFGRRSATVIDHLRSLTPLDARDILMQIGKQEDEKVVNMHPQDFKTLFETIERSKDCAYKWLYDETLEDR
Consider B5, for which, in series [5], the binding result is “binds”.

B6: Alexa488-Δ41 TFB2M (natural protein, human, UniProt Q9H5Q4 42-396, looked up)
chain: CGLSDSSPQLWPEPDFRNPPRKASKASLDFKRYVTDRRLAETLAQIYLGKPSRPPHLLLECNPGPGILTQALLEAGAKVVALESDKTFIPHLESLGKNLDGKLRVIHCDFFKLDPRSGGVIKPPAMSSRGLFKNLGIEAVPWTADIPLKVVGMFPSRGEKRALWKLAYDLYSCTSIYKFGRIEVNMFIGEKEFQKLMADPGNPDLYHVLSVIWQLACEIKVLHMEPWSSFDIYTRKGPLENPKRRELLDQLQQKLYLIQMIPRQNLFTKNLTPMNYNIFFHLLKHCFGRRSATVIDHLRSLTPLDARDILMQIGKQEDEKVVNMHPQDFKTLFETIERSKDCAYKWLYDETLEDR
modifications: Alexa Fluor 488 C5 maleimide label (labelling efficiency ~76%)
For the molecule B6, in series [6], the Kd came to 6.1 nM.

B7: Human mitochondrial transcription factor A (TFAM) Δ42 (natural protein, UniProt Q00059 43-245, looked up)
chain: SSVLASCPKKPVSSYLRFSKEQLPIFKAQNPDAKTTELIRRIAQRWRELPDSKKKIYQDAYRAEWQVYKEEISRFKEQLTPSQIMSLEKEIMDKHLKRKAMTKKKELTLLGKPKRPRSAYNVYVAERFQEAKGDSPQEKLKTVKENWKNLSDSEKELYIQHAKEDETRYHNEMKSWEEQMIEVGRKDLLRRTIKKQRKYGAEE
In the case of B7, the binding result in series [4] is on record as “binds”.

B8: Human transcription factor 2 (TFB2M) Y209A (natural protein, UniProt Q9H5Q4 21-396, looked up)
chain: GRFCILGSEAATRKHLPARNHCGLSDSSPQLWPEPDFRNPPRKASKASLDFKRYVTDRRLAETLAQIYLGKPSRPPHLLLECNPGPGILTQALLEAGAKVVALESDKTFIPHLESLGKNLDGKLRVIHCDFFKLDPRSGGVIKPPAMSSRGLFKNLGIEAVPWTADIPLKVVGMFPSRGEKRALWKLAADLYSCTSIYKFGRIEVNMFIGEKEFQKLMADPGNPDLYHVLSVIWQLACEIKVLHMEPWSSFDIYTRKGPLENPKRRELLDQLQQKLYLIQMIPRQNLFTKNLTPMNYNIFFHLLKHCFGRRSATVIDHLRSLTPLDARDILMQIGKQEDEKVVNMHPQDFKTLFETIERSKDCAYKWLYDETLEDR
For B8, the binding result in series [5] is “binds”.

B9: Human transcription factor 2 (TFB2M) (GS)3-loop (natural protein, UniProt Q9H5Q4 21-396, looked up)
chain: GRFCILGSEAATRKHLPARNHCGLSDSSPQLWPEPDFRNPPRKASKASLDFKRYVTDRRLAETLAQIYLGKPSRPPHLLLECNPGPGILTQALLEAGAKVVALESDKTFIPHLESLGKNLDGKLRVIHCDFFKLDPGSGSGSGPPAMSSRGLFKNLGIEAVPWTADIPLKVVGMFPSRGEKRALWKLAYDLYSCTSIYKFGRIEVNMFIGEKEFQKLMADPGNPDLYHVLSVIWQLACEIKVLHMEPWSSFDIYTRKGPLENPKRRELLDQLQQKLYLIQMIPRQNLFTKNLTPMNYNIFFHLLKHCFGRRSATVIDHLRSLTPLDARDILMQIGKQEDEKVVNMHPQDFKTLFETIERSKDCAYKWLYDETLEDR
With B9, the binding result in series [5] is reported as “binds”.

Source of the values: publication PMC11642874 (bioRxiv, 2024).
